From article PMC12627087, “mRNA delivery of circumsporozoite protein epitope-based malaria vaccines induces protection in a mouse model” (NPJ Vaccines, 2025)
Substitutions are numbered along the chain they refer to.

B1: C-term MD1 24mer (other)
chain: EPSDNHTKSYYAKIQNSLSTEWSPCSVTCGNGIQVRIKPGSANKPKANLTYANDIEKKICKMEKCGGSLSKDIIKLLNEQVNKEMQSSNLYMSMSSWCYTHSLDGAGLFLFDHAAEEYEHAKKLIIFLNENNVPVNLTSISAPEHNFTGLTQIFQKAYEHEQNISESINNITDHAIKSKDHATFNFLQWYVAEQHEEEVLFKDILDKIELIGNENHGLYLADQYVKGIAKSRKS
modifications: glycosylated (engineered glycosylation sites)
notes: Plasmodium falciparum circumsporozoite protein (PfCSP), strain 3D7; C-terminal αTSR domain, Rosetta-designed variant MD1; linker; Self-assembling ferritin nanoparticle; cloned into pHLsec between the leader and a double stop codon (AgeI/KpnI); also called modified-1 C-term 24mer; MD1 αTSR 24mer; source: FreeStyle 293 F cells, transfected, purified (snowdrop lectin agarose, Superose 6 SEC); …
B2: C-term WT 24mer (other)
chain: B1 chain with N5K, T7I, S9E, Y11L, A12N, A47D, N48E, T50D
modifications: glycosylated (engineered glycosylation sites)
notes: Plasmodium falciparum circumsporozoite protein (PfCSP), strain 3D7; wild-type C-terminal αTSR domain, without the C-terminal linker; linker; Self-assembling ferritin nanoparticle; cloned into pHLsec between the leader and a double stop codon (AgeI/KpnI); also called wild-type C-terminal domain on 24mer; WT αTSR 24mer; source: FreeStyle 293 F cells, transfected, purified (snowdrop lectin agarose, …)
B3: J3R3 60mer (other)
chain: KLKQPADGNPDPNANPNVDPNANPNVDPNANPNVDPNANPNANPNANPGSGNGTGGSMQIYEGKLTAEGLRFGIVASRANHALVDRLVEGAIDAIVRHGGREEDITLVRVCGSWEIPVAAGELARKENISAVIAIGVLCRGATPSFDYIASEVSKGLADLSLELRKPITFGVITADTLEQAIEAAGTCHGNKGWEAALCAIEMANLFKSLRGGSNGTGGSGGSNGT
modifications: glycosylated (engineered glycosylation sites)
notes: Plasmodium falciparum circumsporozoite protein (PfCSP), strain 3D7; J3R3, junctional peptide with three added NANP repeats; linker between the peptide and lumazine synthase; C-terminal extension with two added glycosylation sites; Self-assembling lumazine synthase nanoparticle; cloned into pHLsec between the leader and a double stop codon (AgeI/KpnI); source: FreeStyle 293 F cells, transfected, …
B4: P8 60mer (other)
chain: NYYGKQENWYSLKKNGSGNGTGGSMQIYEGKLTAEGLRFGIVASRANHALVDRLVEGAIDAIVRHGGREEDITLVRVCGSWEIPVAAGELARKENISAVIAIGVLCRGATPSFDYIASEVSKGLADLSLELRKPITFGVITADTLEQAIEAAGTCHGNKGWEAALCAIEMANLFKSLRGGSNGTGGSGGSNGT
modifications: glycosylated (engineered glycosylation sites)
notes: Plasmodium falciparum circumsporozoite protein (PfCSP), strain 3D7; linker between the peptide and lumazine synthase; C-terminal extension with two added glycosylation sites; Self-assembling lumazine synthase nanoparticle; cloned into pHLsec between the leader and a double stop codon (AgeI/KpnI); source: FreeStyle 293 F cells, transfected, purified (snowdrop lectin agarose, Superose 6 SEC); …
B5: J3 24mer (other)
chain: KLKQPADGNPDPNANPNVDPNANPNVDPNANPNVDPLSKDIIKLLNEQVNKEMQSSNLYMSMSSWCYTHSLDGAGLFLFDHAAEEYEHAKKLIIFLNENNVPVNLTSISAPEHNFTGLTQIFQKAYEHEQNISESINNITDHAIKSKDHATFNFLQWYVAEQHEEEVLFKDILDKIELIGNENHGLYLADQYVKGIAKSRKS
modifications: glycosylated (engineered glycosylation sites)
notes: Plasmodium falciparum circumsporozoite protein (PfCSP), strain 3D7; J3, full-length junctional peptide beginning with Region I; Self-assembling ferritin nanoparticle; cloned into pHLsec between the leader and a double stop codon (AgeI/KpnI); also called peptide J3-24mer; source: FreeStyle 293 F cells, transfected, purified (snowdrop lectin agarose, Superose 6 SEC); copies: 24
B6: J2 24mer (other)
chain: KLKQPADGNPDPNANPNVDPNANPNVDPLSKDIIKLLNEQVNKEMQSSNLYMSMSSWCYTHSLDGAGLFLFDHAAEEYEHAKKLIIFLNENNVPVNLTSISAPEHNFTGLTQIFQKAYEHEQNISESINNITDHAIKSKDHATFNFLQWYVAEQHEEEVLFKDILDKIELIGNENHGLYLADQYVKGIAKSRKS
modifications: glycosylated (engineered glycosylation sites)
notes: Plasmodium falciparum circumsporozoite protein (PfCSP), strain 3D7; J2, minimal junction peptide beginning with Region I; Self-assembling ferritin nanoparticle; cloned into pHLsec between the leader and a double stop codon (AgeI/KpnI); also called peptide J2-24mer; source: FreeStyle 293 F cells, transfected, purified (snowdrop lectin agarose, Superose 6 SEC); copies: 24
B7: P9 24mer (other)
chain: KQENWYSLKKNSRSLLSKDIIKLLNEQVNKEMQSSNLYMSMSSWCYTHSLDGAGLFLFDHAAEEYEHAKKLIIFLNENNVPVNLTSISAPEHNFTGLTQIFQKAYEHEQNISESINNITDHAIKSKDHATFNFLQWYVAEQHEEEVLFKDILDKIELIGNENHGLYLADQYVKGIAKSRKS
modifications: glycosylated (engineered glycosylation sites)
notes: Plasmodium falciparum circumsporozoite protein (PfCSP), strain 3D7; Self-assembling ferritin nanoparticle; cloned into pHLsec between the leader and a double stop codon (AgeI/KpnI); source: FreeStyle 293 F cells, transfected, purified (snowdrop lectin agarose, Superose 6 SEC); copies: 24
B8: P9 60mer (other)
chain: KQENWYSLKKNSRSLGSGNGTGGSMQIYEGKLTAEGLRFGIVASRANHALVDRLVEGAIDAIVRHGGREEDITLVRVCGSWEIPVAAGELARKENISAVIAIGVLCRGATPSFDYIASEVSKGLADLSLELRKPITFGVITADTLEQAIEAAGTCHGNKGWEAALCAIEMANLFKSLRGGSNGTGGSGGSNGT
modifications: glycosylated (engineered glycosylation sites)
notes: as for B4
B9: P1 60mer (other)
chain: YGSSSNTRVLNELNYGSGNGTGGSMQIYEGKLTAEGLRFGIVASRANHALVDRLVEGAIDAIVRHGGREEDITLVRVCGSWEIPVAAGELARKENISAVIAIGVLCRGATPSFDYIASEVSKGLADLSLELRKPITFGVITADTLEQAIEAAGTCHGNKGWEAALCAIEMANLFKSLRGGSNGTGGSGGSNGT
modifications: glycosylated (engineered glycosylation sites)
notes: as for B4
B10: J3R3 24mer (other)
chain: KLKQPADGNPDPNANPNVDPNANPNVDPNANPNVDPNANPNANPNANPLSKDIIKLLNEQVNKEMQSSNLYMSMSSWCYTHSLDGAGLFLFDHAAEEYEHAKKLIIFLNENNVPVNLTSISAPEHNFTGLTQIFQKAYEHEQNISESINNITDHAIKSKDHATFNFLQWYVAEQHEEEVLFKDILDKIELIGNENHGLYLADQYVKGIAKSRKS
modifications: glycosylated (engineered glycosylation sites)
notes: Plasmodium falciparum circumsporozoite protein (PfCSP), strain 3D7; J3R3, junctional peptide with three added NANP repeats; Self-assembling ferritin nanoparticle; cloned into pHLsec between the leader and a double stop codon (AgeI/KpnI); source: FreeStyle 293 F cells, transfected, purified (snowdrop lectin agarose, Superose 6 SEC); copies: 24
B11: (NANP)6 60mer (other)
chain: NANPNANPNANPNANPNANPNANPGSGNGTGGSMQIYEGKLTAEGLRFGIVASRANHALVDRLVEGAIDAIVRHGGREEDITLVRVCGSWEIPVAAGELARKENISAVIAIGVLCRGATPSFDYIASEVSKGLADLSLELRKPITFGVITADTLEQAIEAAGTCHGNKGWEAALCAIEMANLFKSLRGGSNGTGGSGGSNGT
modifications: glycosylated (engineered glycosylation sites)
notes: Plasmodium falciparum circumsporozoite protein (PfCSP), strain 3D7; (NANP)6, 24-residue NANP repeat peptide; linker between the peptide and lumazine synthase; C-terminal extension with two added glycosylation sites; Self-assembling lumazine synthase nanoparticle; cloned into pHLsec between the leader and a double stop codon (AgeI/KpnI); also called (NANP)6 peptide 60mer; source: FreeStyle 293 F …
B12: P15 24mer (other)
chain: DNEKLRKPKHKKLKQLSKDIIKLLNEQVNKEMQSSNLYMSMSSWCYTHSLDGAGLFLFDHAAEEYEHAKKLIIFLNENNVPVNLTSISAPEHNFTGLTQIFQKAYEHEQNISESINNITDHAIKSKDHATFNFLQWYVAEQHEEEVLFKDILDKIELIGNENHGLYLADQYVKGIAKSRKS
modifications: glycosylated (engineered glycosylation sites)
notes: as for B7
B13: P2 24mer (other)
chain: SNTRVLNELNYDNAGLSKDIIKLLNEQVNKEMQSSNLYMSMSSWCYTHSLDGAGLFLFDHAAEEYEHAKKLIIFLNENNVPVNLTSISAPEHNFTGLTQIFQKAYEHEQNISESINNITDHAIKSKDHATFNFLQWYVAEQHEEEVLFKDILDKIELIGNENHGLYLADQYVKGIAKSRKS
modifications: glycosylated (engineered glycosylation sites)
notes: as for B7
B14: P1 24mer (other)
chain: YGSSSNTRVLNELNYLSKDIIKLLNEQVNKEMQSSNLYMSMSSWCYTHSLDGAGLFLFDHAAEEYEHAKKLIIFLNENNVPVNLTSISAPEHNFTGLTQIFQKAYEHEQNISESINNITDHAIKSKDHATFNFLQWYVAEQHEEEVLFKDILDKIELIGNENHGLYLADQYVKGIAKSRKS
modifications: glycosylated (engineered glycosylation sites)
notes: as for B7
B15: P8 24mer (other)
chain: NYYGKQENWYSLKKNLSKDIIKLLNEQVNKEMQSSNLYMSMSSWCYTHSLDGAGLFLFDHAAEEYEHAKKLIIFLNENNVPVNLTSISAPEHNFTGLTQIFQKAYEHEQNISESINNITDHAIKSKDHATFNFLQWYVAEQHEEEVLFKDILDKIELIGNENHGLYLADQYVKGIAKSRKS
modifications: glycosylated (engineered glycosylation sites)
notes: as for B7
B16: P2 60mer (other)
chain: SNTRVLNELNYDNAGGSGNGTGGSMQIYEGKLTAEGLRFGIVASRANHALVDRLVEGAIDAIVRHGGREEDITLVRVCGSWEIPVAAGELARKENISAVIAIGVLCRGATPSFDYIASEVSKGLADLSLELRKPITFGVITADTLEQAIEAAGTCHGNKGWEAALCAIEMANLFKSLRGGSNGTGGSGGSNGT
modifications: glycosylated (engineered glycosylation sites)
notes: as for B4
B17: J2 60mer (other)
chain: KLKQPADGNPDPNANPNVDPNANPNVDPGSGNGTGGSMQIYEGKLTAEGLRFGIVASRANHALVDRLVEGAIDAIVRHGGREEDITLVRVCGSWEIPVAAGELARKENISAVIAIGVLCRGATPSFDYIASEVSKGLADLSLELRKPITFGVITADTLEQAIEAAGTCHGNKGWEAALCAIEMANLFKSLRGGSNGTGGSGGSNGT
modifications: glycosylated (engineered glycosylation sites)
notes: Plasmodium falciparum circumsporozoite protein (PfCSP), strain 3D7; J2, minimal junction peptide beginning with Region I; linker between the peptide and lumazine synthase; C-terminal extension with two added glycosylation sites; Self-assembling lumazine synthase nanoparticle; cloned into pHLsec between the leader and a double stop codon (AgeI/KpnI); also called peptide J2-60mer; short junctional …
B18: J3 60mer (other)
chain: KLKQPADGNPDPNANPNVDPNANPNVDPNANPNVDPGSGNGTGGSMQIYEGKLTAEGLRFGIVASRANHALVDRLVEGAIDAIVRHGGREEDITLVRVCGSWEIPVAAGELARKENISAVIAIGVLCRGATPSFDYIASEVSKGLADLSLELRKPITFGVITADTLEQAIEAAGTCHGNKGWEAALCAIEMANLFKSLRGGSNGTGGSGGSNGT
modifications: glycosylated (engineered glycosylation sites)
notes: Plasmodium falciparum circumsporozoite protein (PfCSP), strain 3D7; J3, full-length junctional peptide beginning with Region I; linker between the peptide and lumazine synthase; C-terminal extension with two added glycosylation sites; Self-assembling lumazine synthase nanoparticle; cloned into pHLsec between the leader and a double stop codon (AgeI/KpnI); also called peptide J3-60mer; source: …
B19: (NANP)6 24mer (other)
chain: NANPNANPNANPNANPNANPNANPLSKDIIKLLNEQVNKEMQSSNLYMSMSSWCYTHSLDGAGLFLFDHAAEEYEHAKKLIIFLNENNVPVNLTSISAPEHNFTGLTQIFQKAYEHEQNISESINNITDHAIKSKDHATFNFLQWYVAEQHEEEVLFKDILDKIELIGNENHGLYLADQYVKGIAKSRKS
modifications: glycosylated (engineered glycosylation sites)
notes: Plasmodium falciparum circumsporozoite protein (PfCSP), strain 3D7; (NANP)6, 24-residue NANP repeat peptide; Self-assembling ferritin nanoparticle; cloned into pHLsec between the leader and a double stop codon (AgeI/KpnI); source: FreeStyle 293 F cells, transfected, purified (snowdrop lectin agarose, Superose 6 SEC); copies: 24
B20: C-term WT 60mer (other)
chain: EPSDKHIKEYLNKIQNSLSTEWSPCSVTCGNGIQVRIKPGSANKPKDELDYANDIEKKICKMEKCGGSMQIYEGKLTAEGLRFGIVASRANHALVDRLVEGAIDAIVRHGGREEDITLVRVCGSWEIPVAAGELARKENISAVIAIGVLCRGATPSFDYIASEVSKGLADLSLELRKPITFGVITADTLEQAIEAAGTCHGNKGWEAALCAIEMANLFKSLRGGSNGTGGSGGSNGT
modifications: glycosylated (engineered glycosylation sites)
notes: Plasmodium falciparum circumsporozoite protein (PfCSP), strain 3D7; wild-type C-terminal αTSR domain, without the C-terminal linker; linker; C-terminal extension with two added glycosylation sites; Self-assembling lumazine synthase nanoparticle; cloned into pHLsec between the leader and a double stop codon (AgeI/KpnI); also called wild-type C-terminal domain on 60mer; WT αTSR 60mer; source: …
B21: C-term MD1 60mer (other)
chain: B20 chain with K5N, I7T, E9S, L11Y, N12A, D47A, E48N, D50T
modifications: glycosylated (engineered glycosylation sites)
notes: Plasmodium falciparum circumsporozoite protein (PfCSP), strain 3D7; C-terminal αTSR domain, Rosetta-designed variant MD1; linker; C-terminal extension with two added glycosylation sites; Self-assembling lumazine synthase nanoparticle; cloned into pHLsec between the leader and a double stop codon (AgeI/KpnI); also called modified-1 C-term 60mer; MD1 αTSR 60mer; source: FreeStyle 293 F cells, …

Molecular target: the molecule itself
Experiment: SEC + SEC-MALS + other: negative stain electron microscopy; self-assembly of the protomer into the nanoparticle; Superose 6 10/300 at 0.5 ml/min with DAWN HELEOS II and Optilab T-rEX detectors, glycan mass corrected by protein-conjugate analysis; nsEM at 0.1 mg/ml in HBS, uranyl formate

Protein	binding result
B1	binds
B2	binds
B3	binds
B4	binds
B5	binds
B6	binds
B7	binds
B8	binds
B9	binds
B10	binds
B11	binds
B12	binds
B13	binds
B14	binds
B15	binds
B16	binds
B17	binds
B18	binds
B19	binds
B20	binds
B21	binds
